The supplement of paper PMC11316812
± gives the standard deviation of the averaged measurements.

Key:
[1] = system: hTERT-HMEC; assay: percentage of EdU-negative (G0-arrested) nuclei per well, 72 h; higher = more G0 arrest; conditions: reference: sequence is the full UniProt precursor, the tested protein was the secreted form or ectodomain
[2] = system: MCF7; assay: as above; conditions: reference: sequence is the full UniProt precursor, the tested protein was the secreted form or ectodomain
[3] = protein concentration 0.0105 µM
[4] = protein concentration 0.00875 µM
[5] = protein concentration 0.0875 µM
[6] = protein concentration 0.01625 µM
[7] = protein concentration 0.1625 µM
[8] = protein concentration 0.021325 µM
[9] = protein concentration 0.03125 µM
[10] = protein concentration 0.21325 µM
[11] = protein concentration 0.3125 µM
[12] = protein concentration 0.0225 µM
[13] = protein concentration 0.02225 µM
[14] = protein concentration 0.2225 µM
[15] = protein concentration 0.01477 µM
[16] = protein concentration 0.1477 µM
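Also: secreted proteins added to cultured cells, EdU pulse at the end, nuclei found by Hoechst imaging, EdU status from nuclear versus surrounding ring intensity ratio, PBS as neutral control.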

Row | Sequence | percentage of EdU-negative [1, 9] | percentage of EdU-negative [1, 11] | percentage of EdU-negative [2, 9] | percentage of EdU-negative [2, 11] | percentage of EdU-negative [1, 12] | percentage of EdU-negative ([1]; protein concentration 0.225 µM) | percentage of EdU-negative [2, 12] | percentage of EdU-negative ([2]; protein concentration 0.225 µM) | also measured
1 | MSLWKKTVYRSLCLALALLVAVTVFQRSLTPGQFLQEPPPPTLEPQKAQKPNGQLVNPNNFWKNPKDVAAPTPMASQGPQAWDVTTTNCSANINLTHQPWFQVLEPQFRQFLFYRHCRYFPMLLNHPEKCRGDVYLLVVVKSVITQHDRREAIRQTWGRERQSAGGGRGAVRTLFLLGTASKQEERTHYQQLLAYEDRLYGDILQWGFLDTFFNLTLKEIHFLKWLDIYCPHVPFIFKGDDDVFVNPTNLLEFLADRQPQENLFVGDVLQHARPIRRKDNKYYIPGALYGKASYPPYAGGGGFLMAGSLARRLHHACDTLELYPIDDVFLGMCLEVLGVQPTAHEGFKTFGISRNRNSRMNKEPCFFRAMLVVHKLLPPELLAMWGLVHSNLTCSRKLQVL [Q8NFL0] | – | – | – | – | – | – | – | – | percentage of EdU-negative [1, 3]: 4.88 ± 0.47%; percentage of EdU-negative ([1]; protein concentration 0.105 µM): 6.5 ± 1.4%; percentage of EdU-negative [2, 3]: 25.6 ± 1%; percentage of EdU-negative ([2]; protein concentration 0.105 µM): 27.97 ± 0.1%
2 | MLRKGCCVELLLLLVAAELPLGGGCPRDCVCYPAPMTVSCQAHNFAAIPEGIPVDSERVFLQNNRIGLLQPGHFSPAMVTLWIYSNNITYIHPSTFEGFVHLEELDLGDNRQLRTLAPETFQGLVKLHALYLYKCGLSALPAGVFGGLHSLQYLYLQDNHIEYLQDDIFVDLVNLSHLFLHGNKLWSLGPGTFRGLVNLDRLLLHENQLQWVHHKAFHDLRRLTTLFLFNNSLSELQGECLAPLGALEFLRLNGNPWDCGCRARSLWEWLQRFRGSSSAVPCVSPGLRHGQDLKLLRAEDFRNCTGPASPHQIKSHTLTTTDRAARKEHHSPHGPTRSKGHPHGPRPGHRKPGKNCTNPRNRNQISKAGAGKQAPELPDYAPDYQHKFSFDIMPTARPKRKGKCARRTPIRAPSGVQQASSASSLGASLLAWTLGLAVTLR [Q86UN2] | – | – | – | – | – | – | – | – | percentage of EdU-negative [1, 4]: 5.4 ± 1%; percentage of EdU-negative [1, 5]: 5.31 ± 0.34%; percentage of EdU-negative [2, 4]: 26.2 ± 0.18%; percentage of EdU-negative [2, 5]: 28.6 ± 1.4%
3 | MKLALLLPWACCCLCGSALATGFLYPFSAAALQQHGYPEPGAGSPGSGYASRRHWCHHTVTRTVSCQVQNGSETVVQRVYQSCRWPGPCANLVSYRTLIRPTYRVSYRTVTVLEWRCCPGFTGSNCDEECMNCTRLSDMSERLTTLEAKVLLLEAAERPSSPDNDLPAPESTPPTWNEDFLPDAIPLAHPVPRQRRPTGPAGPPGQTGPPGPAGPPGSKGDRGQTGEKGPAGPPGLLGPPGPRGLPGEMGRPGPPGPPGPAGNPGPSPNSPQGALYSLQPPTDKDNGDSRLASAIVDTVLAGVPGPRGPPGPPGPPGPRGPPGPPGTPGSQGLAGERGTVGPSGEPGVKGEEGEKAATAEGEGVQQLREALKILAERVLILEHMIGIHDPLASPEGGSGQDAALRANLKMKRGGAQPDGVLAALLGPDPGQKSVDQASSRK [Q96A83] | – | – | – | – | – | – | – | – | percentage of EdU-negative [1, 6]: 4.63 ± 0.36%; percentage of EdU-negative [1, 7]: 7.44 ± 3.3%; percentage of EdU-negative [2, 6]: 26.9 ± 1.4%; percentage of EdU-negative [2, 7]: 25.1 ± 1.8%
4 | MTAPGAAGRCPPTTWLGSLLLLVCLLASRSITEEVSEYCSHMIGSGHLQSLQRLIDSQMETSCQITFEFVDQEQLKDPVCYLKKAFLLVQDIMEDTMRFRDNTPNAIAIVQLQELSLRLKSCFTKDYEEHDKACVRTFYETPLQLLEKVKNVFNETKNLLDKDWNIFSKNCNNSFAECSSQDVVTKPDCNCLYPKAIPSSDPASVSPHQPLAPSMAPVAGLTWEDSEGTEGSSLLPGEQPLHTVDPGSAKQRPPRSTCQSFEPPETPVVKDSTIGGSPQPRPSVGAFNPGMEDILDSAMGTNWVPEEASGEASEIPVPQGTELSPSRPGGGSMQTEPARPSNFLSASSPLPASAKGQQPADVTGTALPRVGPVRPTGQDWNHTPQKTDHPSALLRDPPEPGSPRISSLRPQGLSNPSTLSAQPQLSRSHSSGSVLPLGELEGRRSTRDRRSPAEPEGGPASEGAARPLPRFNSVPLTDTGHERQSEGSFSPQLQESVFHLLVPSVILVLLAVGGLLFYRWRRRSHQEPQRADSPLEQPEGSPLTQDDRQVELPV | 4.68 ± 0.61% | 6.12 ± 1.1% | 26.7 ± 0.3% | 26 ± 0.57% | – | – | – | – | percentage of EdU-negative [1, 8]: 5.8 ± 0.14%; percentage of EdU-negative [1, 10]: 6.92 ± 1.3%; percentage of EdU-negative [2, 8]: 21.9 ± 1.2%; percentage of EdU-negative [2, 10]: 27.6 ± 1.4%
5 | MWQLLLPTALLLLVSAGMRTEDLPKAVVFLEPQWYSVLEKDSVTLKCQGAYSPEDNSTQWFHNENLISSQASSYFIDAATVNDSGEYRCQTNLSTLSDPVQLEVHIGWLLLQAPRWVFKEEDPIHLRCHSWKNTALHKVTYLQNGKDRKYFHHNSDFHIPKATLKDSGSYFCRGLVGSKNVSSETVNITITQGLAVSTISSFSPPGYQVSFCLVMVLLFAVDTGLYFSVKTNI | – | – | – | – | 4.18 ± 0.071% | 4.98 ± 1.1% | 25.6 ± 2.5% | 25.5 ± 3.6% | –
6 | MWQIVFFTLSCDLVLAAAYNNFRKSMDSIGKKQYQVQHGSCSYTFLLPEMDNCRSSSSPYVSNAVQRDAPLEYDDSVQRLQVLENIMENNTQWLMKLENYIQDNMKKEMVEIQQNAVQNQTAVMIEIGTNLLNQTAEQTRKLTDVEAQVLNQTTRLELQLLEHSLSTNKLEKQILDQTSEINKLQDKNSFLEKKVLAMEDKHIIQLQSIKEEKDQLQVLVSKQNSIIEELEKKIVTATVNNSVLQKQQHDLMETVNNLLTMMSTSNSAKDPTVAKEEQISFRDCAEVFKSGHTTNGIYTLTFPNSTEEIKAYCDMEAGGGGWTIIQRREDGSVDFQRTWKEYKVGFGNPSGEYWLGNEFVSQLTNQQRYVLKIHLKDWEGNEAYSLYEHFYLSSEELNYRIHLKGLTGTAGKISSISQPGNDFSTKDGDNDKCICKCSQMLTGGWWFDACGPSNLNGMYYPQRQNTNKFNGIKWYYWKGSGYSLKATTMMIRPADF | – | – | – | – | – | – | – | – | percentage of EdU-negative [1, 13]: 4.54 ± 0.087%; percentage of EdU-negative [1, 14]: 7.44 ± 0.6%; percentage of EdU-negative [2, 13]: 27.2 ± 1.1%; percentage of EdU-negative [2, 14]: 27.32 ± 0.1%
7 | MFHSSAMVNSHRKPMFNIHRGFYCLTAILPQICICSQFSVPSSYHFTEDPGAFPVATNGERFPWQELRLPSVVIPLHYDLFVHPNLTSLDFVASEKIEVLVSNATQFIILHSKDLEITNATLQSEEDSRYMKPGKELKVLSYPAHEQIALLVPEKLTPHLKYYVAMDFQAKLGDGFEGFYKSTYRTLGGETRILAVTDFEPTQARMAFPCFDEPLFKANFSIKIRRESRHIALSNMPKVKTIELEGGLLEDHFETTVKMSTYLVAYIVCDFHSLSGFTSSGVKVSIYASPDKRNQTHYALQASLKLLDFYEKYFDIYYPLSKLDLIAIPDFAPGAMENWGLITYRETSLLFDPKTSSASDKLWVTRVIAHELAHQWFGNLVTMEWWNDIWLKEGFAKYMELIAVNATYPELQFDDYFLNVCFEVITKDSLNSSRPISKPAETPTQIQEMFDEVSYNKGACILNMLKDFLGEEKFQKGIIQYLKKFSYRNAKNDDLWSSLSNSCLESDFTSGGVCHSDPKMTSNMLAFLGENAEVKEMMTTWTLQKGIPLLVVKQDGCSLRLQQERFLQGVFQEDPEWRALQERYLWHIPLTYSTSSSNVIHRHILKSKTDTLDLPEKTSWVKFNVDSNGYYIVHYEGHGWDQLITQLNQNHTLLRPKDRVGLIHDVFQLVGAGRLTLDKALDMTYYLQHETSSPALLEGLSYLESFYHMMDRRNISDISENLKRYLLQYFKPVIDRQSWSDKGSVWDRMLRSALLKLACDLNHAPCIQKAAELFSQWMESSGKLNIPTDVLKIVYSVGAQTTAGWNYLLEQYELSMSSAEQNKILYALSTSKHQEKLLKLIELGMEGKVIKTQNLAALLHAIARRPKGQQLAWDFVRENWTHLLKKFDLGSYDIRMIISGTTAHFSSKDKLQEVKLFFESLEAQGSHLDIFQTVLETITKNIKWLEKNLPTLRTWLMVNT [Q6P179] | – | – | – | – | 4.8 ± 0.71% | 5.45 ± 0.3% | 25.63 ± 0.041% | 25.5 ± 0.38% | –
8 | MAFSGSQAPYLSPAVPFSGTIQGGLQDGLQITVNGTVLSSSGTRFAVNFQTGFSGNDIAFHFNPRFEDGGYVVCNTRQNGSWGPEERKTHMPFQKGMPFDLCFLVQSSDFKVMVNGILFVQYFHRVPFHRVDTISVNGSVQLSYISFQNPRTVPVQPAFSTVPFSQPVCFPPRPRGRRQKPPGVWPANPAPITQTVIHTVQSAPGQMFSTPAIPPMMYPHPAYPMPFITTILGGLYPSKSILLSGTVLPSAQRFHINLCSGNHIAFHLNPRFDENAVVRNTQIDNSWGSEERSLPRKMPFVRGQSFSVWILCEAHCLKVAVDGQHLFEYYHRLRNLPTINRLEVGGDIQLTHVQT | 4.97 ± 0.35% | 4.66 ± 0.35% | 26.3 ± 2.5% | 26.3 ± 0.4% | – | – | – | – | percentage of EdU-negative [1, 15]: 5.5 ± 0.22%; percentage of EdU-negative [1, 16]: 9.26 ± 0.15%; percentage of EdU-negative [2, 15]: 30.2 ± 1.1%; percentage of EdU-negative [2, 16]: 39.3 ± 0.83%
9 | MVGPAPRRRLRPLAALALVLALAPGLPTARAGQTPRPAERGPPVRLFTEEELARYGGEEEDQPIYLAVKGVVFDVTSGKEFYGRGAPYNALTGKDSTRGVAKMSLDPADLTHDTTGLTAKELEALDEVFTKVYKAKYPIVGYTARRILNEDGSPNLDFKPEDQPHFDIKDEF [Q9UMX5] | 4.98 ± 0.59% | 6.64 ± 2.3% | 22.8 ± 0.65% | 23.5 ± 1.4% | – | – | – | – | –
10 | MAESAGASSFFPLVVLLLAGSGGSGPRGVQALLCACTSCLQANYTCETDGACMVSIFNLDGMEHHVRTCIPKVELVPAGKPFYCLSSEDLRNTHCCYTDYCNRIDLRVPSGHLKEPEHPSMWGPVELVGIIAGPVFLLFLIIIIVFLVINYHQRVYHNRQRLDMEDPSCEMCLSKDKTLQDLVYDLSTSGSGSGLPLFVQRTVARTIVLQEIIGKGRFGEVWRGRWRGGDVAVKIFSSREERSWFREAEIYQTVMLRHENILGFIAADNKDNGTWTQLWLVSDYHEHGSLFDYLNRYTVTIEGMIKLALSAASGLAHLHMEIVGTQGKPGIAHRDLKSKNILVKKNGMCAIADLGLAVRHDAVTDTIDIAPNQRVGTKRYMAPEVLDETINMKHFDSFKCADIYALGLVYWEIARRCNSGGVHEEYQLPYYDLVPSDPSIEEMRKVVCDQKLRPNIPNWWQSYEALRVMGKMMRECWYANGAARLTALRIKKTLSQLSVQEDVKI | – | – | – | – | 5.48 ± 0.32% | 6.41 ± 1.6% | 25.1 ± 0.54% | 25.3 ± 3.2% | –
